This is an account of results in article PMC3589492, “Intersubunit Ionic Interactions Stabilize the Nucleoside Diphosphate Kinase of Mycobacterium tuberculosis” (PLoS ONE, 2013).

Series [1] deals with the molecule itself. The experiment in a line: cell-based or functional assay.
Series [2] deals with the molecule itself. Description: SEC; Superose 12 column, 50 mM Hepes pH 7.4, 150 mM sodium chloride, 0.4 mL/min, calibrated with molecular weight markers. A general note: In gel filtration, larger molecules generally elute earlier.

B1: Nucleoside diphosphate kinase of Mycobacterium tuberculosis, wild type (enzyme)
chain: MTERTLVLIKPDGIERQLIGEIISRIERKGLTIAALQLRTVSAELASQHYAEHEGKPFFGSLLEFITSGPVVAAIVEGTRAIAAVRQLAGGTDPVQAAAPGTIRGDFALETQFNLVHGSDSAESAQREIALWFPGA
notes: Nucleoside diphosphate kinase, Mycobacterium tuberculosis; No tag is mentioned; also called Mt-NDPK; wt Mt-NDPK
In the case of B1, in series [1], the “c1/2 of inactivation/unfolding in urea (10 µg/mL, 16 h)” value was about 5.2 M. For the same protein, the stoichiometry N (usually the number of molecules, sites or subunits per partner or assembly) in series [2] stood at 6.
